Results: article PMC11190491

Target: peptide on cattle MR1 (cattle)
Test: data from (80); method not given; cattle MR1 without riboflavin-based antigen

Kd: 30 µM
Substance: A-F7 MAIT TCR
